Source: patent US20220389089A1 (SURFACE ONCOLOGY, published 2022)

Molecular target: T1, IL-27RA on NCI-H2228 lung cancer cells (human, UniProt Q6UWB1 33-636)
T1 sequence: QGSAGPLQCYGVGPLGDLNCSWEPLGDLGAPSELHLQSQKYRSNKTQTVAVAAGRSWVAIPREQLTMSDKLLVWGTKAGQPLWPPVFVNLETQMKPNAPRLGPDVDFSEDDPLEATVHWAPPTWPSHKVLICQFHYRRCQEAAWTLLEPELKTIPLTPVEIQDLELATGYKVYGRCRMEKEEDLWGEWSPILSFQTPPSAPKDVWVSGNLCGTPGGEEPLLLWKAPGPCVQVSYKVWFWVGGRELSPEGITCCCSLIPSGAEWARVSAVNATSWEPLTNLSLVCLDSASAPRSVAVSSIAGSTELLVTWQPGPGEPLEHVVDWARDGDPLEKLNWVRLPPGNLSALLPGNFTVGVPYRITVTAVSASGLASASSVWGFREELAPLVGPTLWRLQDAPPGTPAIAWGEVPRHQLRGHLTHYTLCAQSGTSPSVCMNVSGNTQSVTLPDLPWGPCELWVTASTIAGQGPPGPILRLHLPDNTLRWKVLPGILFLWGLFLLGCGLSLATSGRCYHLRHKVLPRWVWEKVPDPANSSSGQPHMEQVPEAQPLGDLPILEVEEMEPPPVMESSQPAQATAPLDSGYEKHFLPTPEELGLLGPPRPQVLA
Test: cell-based or functional assay

B1: recombinant human IL-27 (ligand)
chain 1: RKGPPAALTLPRVQCRASRYPIAVDCSWTLPPAPNSTSPVSFIATYRLGMAARGHSWPCLQQTPTSTSCTITDVQLFSMAPYVLNVTAVHPWGSSSSFVPFITEHIIKPDPPEGVRLSPLAERQLQVQWEPPGSWPFPEIFSLKYWIRYKRQGAARFHRVGPIEATSFILRAVRPRARYYVQVAAQDLTDYGELSDWSLPATATMSLGK
chain 2: FPRPPGRPQLSLQELRREFTVSLHLARKLLSEVRGQAHRFAESHLPGVNLYLLPLGEQLPDVSLTFQAWRRLSDPERLCFISTTLQPFHALLGGLGTQGRWTNMERMQLWAMRLDLRDLQRHLRFQVLAAGFNLPEEEEEEEEEEEEERKGLLPGALGSALQGPAQVSWPQLLSTYRLLHSLELVLSRAVRELLLLSKAGHSVWPLGFPTLSPQP
EC50 of STAT1 phosphorylation (pSTAT1-PE GeoMean, flow cytometry) in NCI-H2228 lung cancer cells cultured with graded concentrations of IL-27: 5.3 ng/mL
